Blank lines part the entries; values can stand above or below the substance they belong to.
Assays:
[1] = target: human ICOS as used for the 'ICOS OD' read-out of Table 14 (human); assay: binding read as OD; format not described
[2] = target: CD112R (full length, expressed on transfected cells) (human) (UniProt Q6DKI7); assay: flow cytometry on cells expressing the target, 20 nM
[3] = target: T1, CD96 (expressed on cells) (UniProt P40200); assay: as above
T1 sequence (looked up): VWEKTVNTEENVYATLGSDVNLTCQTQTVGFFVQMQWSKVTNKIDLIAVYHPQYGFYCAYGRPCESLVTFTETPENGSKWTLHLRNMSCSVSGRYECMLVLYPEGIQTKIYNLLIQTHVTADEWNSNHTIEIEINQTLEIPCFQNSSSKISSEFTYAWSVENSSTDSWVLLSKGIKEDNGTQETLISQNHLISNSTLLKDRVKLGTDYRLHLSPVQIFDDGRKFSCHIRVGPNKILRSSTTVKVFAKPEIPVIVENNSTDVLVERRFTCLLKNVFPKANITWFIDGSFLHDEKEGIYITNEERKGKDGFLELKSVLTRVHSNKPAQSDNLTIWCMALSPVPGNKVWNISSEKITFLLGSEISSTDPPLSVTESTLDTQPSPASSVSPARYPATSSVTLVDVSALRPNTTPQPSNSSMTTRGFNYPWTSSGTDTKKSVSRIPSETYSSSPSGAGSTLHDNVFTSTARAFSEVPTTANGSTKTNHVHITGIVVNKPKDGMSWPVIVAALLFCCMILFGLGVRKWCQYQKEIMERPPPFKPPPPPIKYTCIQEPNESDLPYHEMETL

[4] = target: CD28 (human) (UniProt P10747); assay: flow cytometry, transfected cells
[5] = target: PD-L1 (human) (UniProt Q9NZQ7); assay: flow cytometry, transfected cells
PD-L1 (human), sequence (Q9NZQ7 19-290 limits assumed): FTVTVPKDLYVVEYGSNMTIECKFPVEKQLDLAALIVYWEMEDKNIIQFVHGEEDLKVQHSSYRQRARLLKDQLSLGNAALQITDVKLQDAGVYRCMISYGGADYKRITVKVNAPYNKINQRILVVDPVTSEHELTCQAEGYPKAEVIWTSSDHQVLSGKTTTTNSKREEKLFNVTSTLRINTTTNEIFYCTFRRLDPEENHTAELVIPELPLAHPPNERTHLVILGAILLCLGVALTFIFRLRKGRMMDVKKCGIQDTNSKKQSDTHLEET

[6] = target: PD-1 on Jurkat/PD-1 cells; assay: flow cytometry on Jurkat/PD-1 cells, 50 nM
[7] = target: PD-1 on Jurkat/PD-1 cells; assay: flow cytometry, 50 nM; ratio to wild type PD-L1 IgV-Fc
[8] = target: T2, TIGIT (human) (UniProt Q495A1); assay: flow cytometry, TIGIT-expressing cells
T2 sequence: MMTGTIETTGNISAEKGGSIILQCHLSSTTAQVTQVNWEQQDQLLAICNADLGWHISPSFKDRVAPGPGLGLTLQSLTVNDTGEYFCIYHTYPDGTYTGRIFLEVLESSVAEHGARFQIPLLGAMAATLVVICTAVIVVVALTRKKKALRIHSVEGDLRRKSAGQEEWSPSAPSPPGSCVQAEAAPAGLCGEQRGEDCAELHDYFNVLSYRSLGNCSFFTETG

[9] = target: T3, CD96 (UniProt P40200); assay: flow cytometry, CD96-expressing cells
T3 sequence (looked up): T1 sequence (looked up)

[10] = target: T4, CD226 (human) (UniProt Q15762); assay: flow cytometry, CD226-expressing cells
T4 sequence: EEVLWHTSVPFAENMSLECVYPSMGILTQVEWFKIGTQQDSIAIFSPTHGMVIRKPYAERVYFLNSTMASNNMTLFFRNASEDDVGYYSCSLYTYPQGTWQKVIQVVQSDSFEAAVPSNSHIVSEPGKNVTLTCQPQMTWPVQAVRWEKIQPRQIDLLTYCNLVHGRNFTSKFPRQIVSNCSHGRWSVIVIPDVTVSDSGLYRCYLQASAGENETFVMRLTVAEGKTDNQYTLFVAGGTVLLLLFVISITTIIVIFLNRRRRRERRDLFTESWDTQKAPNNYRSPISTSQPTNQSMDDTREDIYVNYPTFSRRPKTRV

[11] = target: T4, CD226 (human); assay: flow cytometry on CD226-expressing cells
[12] = target: T3, CD96; assay: flow cytometry on CD96-expressing cells
[13] = target: T3, CD96; assay: flow cytometry, cells
[14] = target: T2, TIGIT (human); assay: flow cytometry, transfected cells
[15] = target: T4, CD226 (human); assay: flow cytometry, transfected cells
[16] = target: human B7-H6, full-length, expressed on transfected Expi293 cells (human) (UniProt Q68D85); assay: flow cytometry on B7-H6-expressing Expi293 cells
human B7-H6, full-length, expressed on transfected Expi293 cells (human), sequence (Q68D85 25-454): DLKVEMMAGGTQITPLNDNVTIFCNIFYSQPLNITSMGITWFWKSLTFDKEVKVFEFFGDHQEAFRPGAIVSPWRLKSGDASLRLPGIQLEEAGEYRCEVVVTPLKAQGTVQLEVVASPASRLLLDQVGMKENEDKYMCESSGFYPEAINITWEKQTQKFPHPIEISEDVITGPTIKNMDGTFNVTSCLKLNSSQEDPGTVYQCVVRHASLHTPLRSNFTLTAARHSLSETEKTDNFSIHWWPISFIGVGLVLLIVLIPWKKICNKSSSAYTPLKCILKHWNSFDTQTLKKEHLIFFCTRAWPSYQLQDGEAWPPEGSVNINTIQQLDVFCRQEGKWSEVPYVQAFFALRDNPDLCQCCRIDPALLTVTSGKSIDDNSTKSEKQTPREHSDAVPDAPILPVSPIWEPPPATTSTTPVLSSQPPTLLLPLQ

[17] = target: human CD28, full-length, expressed on transfected Expi293 cells (human) (UniProt P10747); assay: flow cytometry on CD28-expressing Expi293 cells
[18] = target: PD-1 (Homo sapiens (Human)) (UniProt Q15116); assay: flow cytometry, Jurkat/PD-1 cells
PD-1 (Homo sapiens (Human)), sequence (Q15116 21-288 limits assumed, form in doubt): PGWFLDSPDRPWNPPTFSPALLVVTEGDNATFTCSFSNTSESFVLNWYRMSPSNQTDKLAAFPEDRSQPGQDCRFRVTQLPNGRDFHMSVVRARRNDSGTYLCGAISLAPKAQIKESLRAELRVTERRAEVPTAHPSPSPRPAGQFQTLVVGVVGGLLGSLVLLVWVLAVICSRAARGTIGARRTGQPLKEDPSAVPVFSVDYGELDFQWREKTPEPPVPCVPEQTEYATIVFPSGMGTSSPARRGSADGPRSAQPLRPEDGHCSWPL

CD155 Wild type IgV-Fc, sequence (P15151 24-139 limits assumed): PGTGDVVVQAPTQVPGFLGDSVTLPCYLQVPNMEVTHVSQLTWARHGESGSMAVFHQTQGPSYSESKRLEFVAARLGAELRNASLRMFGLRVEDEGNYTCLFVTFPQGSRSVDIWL
Domain 1: CD86 WT / Domain 2: CD80 WT / Fc (Fc fusion), sequence (chain): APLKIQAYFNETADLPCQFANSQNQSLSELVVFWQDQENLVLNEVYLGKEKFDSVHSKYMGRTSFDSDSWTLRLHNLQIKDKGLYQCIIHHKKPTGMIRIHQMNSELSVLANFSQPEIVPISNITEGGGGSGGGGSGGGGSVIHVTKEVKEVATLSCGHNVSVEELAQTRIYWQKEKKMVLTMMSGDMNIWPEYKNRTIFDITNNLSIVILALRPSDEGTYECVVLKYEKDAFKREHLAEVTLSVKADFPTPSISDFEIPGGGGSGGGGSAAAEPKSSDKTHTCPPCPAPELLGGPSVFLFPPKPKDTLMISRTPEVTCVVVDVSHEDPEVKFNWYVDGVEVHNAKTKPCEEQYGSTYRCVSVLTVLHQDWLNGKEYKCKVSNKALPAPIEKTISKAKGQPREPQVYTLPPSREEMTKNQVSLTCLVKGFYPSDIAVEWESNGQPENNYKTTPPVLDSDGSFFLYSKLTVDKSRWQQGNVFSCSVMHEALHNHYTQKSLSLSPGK
Domain 1: CD80 WT / Domain 2: CD86 WT / Fc (Fc fusion), sequence (chain): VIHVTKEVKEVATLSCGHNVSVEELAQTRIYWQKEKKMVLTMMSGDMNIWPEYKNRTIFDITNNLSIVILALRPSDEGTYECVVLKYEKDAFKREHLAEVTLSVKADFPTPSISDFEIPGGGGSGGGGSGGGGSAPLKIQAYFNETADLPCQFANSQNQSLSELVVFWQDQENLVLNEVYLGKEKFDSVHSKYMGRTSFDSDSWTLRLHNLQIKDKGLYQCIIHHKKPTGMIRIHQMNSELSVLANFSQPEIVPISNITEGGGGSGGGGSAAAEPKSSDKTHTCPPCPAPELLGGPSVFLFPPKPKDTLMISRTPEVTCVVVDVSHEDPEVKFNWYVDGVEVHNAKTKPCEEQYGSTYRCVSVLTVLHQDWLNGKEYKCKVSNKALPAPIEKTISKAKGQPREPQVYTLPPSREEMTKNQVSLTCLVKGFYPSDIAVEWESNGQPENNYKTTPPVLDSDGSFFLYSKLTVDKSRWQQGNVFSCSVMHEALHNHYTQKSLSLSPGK
CD112R (full length, expressed on transfected cells) (human), sequence (Q6DKI7 whole entry): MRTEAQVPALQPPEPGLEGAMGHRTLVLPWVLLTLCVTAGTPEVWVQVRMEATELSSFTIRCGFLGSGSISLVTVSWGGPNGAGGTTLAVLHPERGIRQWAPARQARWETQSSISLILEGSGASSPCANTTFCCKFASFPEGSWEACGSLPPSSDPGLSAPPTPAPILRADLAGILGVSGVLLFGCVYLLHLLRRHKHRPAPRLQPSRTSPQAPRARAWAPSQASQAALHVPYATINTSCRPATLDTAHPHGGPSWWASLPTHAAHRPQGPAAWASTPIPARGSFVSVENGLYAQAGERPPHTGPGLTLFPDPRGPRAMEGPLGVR
human ICOS as used for the 'ICOS OD' read-out of Table 14 (human), sequence (Q9Y6W8 whole entry): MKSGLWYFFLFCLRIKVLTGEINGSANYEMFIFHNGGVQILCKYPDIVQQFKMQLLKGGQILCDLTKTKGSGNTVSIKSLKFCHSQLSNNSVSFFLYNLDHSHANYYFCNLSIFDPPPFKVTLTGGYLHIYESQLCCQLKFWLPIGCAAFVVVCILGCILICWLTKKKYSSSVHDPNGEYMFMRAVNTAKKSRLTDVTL

Substance: PD-L1 IgV A33D, S75P, D104G Fc fusion
MFI at 50 nM [6]: 251
Fold increase over wildtype PD-L1 IgV-Fc [7]: 0 fold

Substance: PD-L1 IgV I20L, D43G, N45D, N78I Fc fusion
MFI at 50 nM [6]: 67000
Fold increase over wildtype PD-L1 IgV-Fc [7]: 12.8 fold

Substance: CD155 Wild type IgV-Fc (from UniProt P15151 24-139) (Fc fusion)
MFI [13]: 3080
MFI [14]: 2720
MFI [15]: 3720

Substance: Domain 1: CD86 WT / Domain 2: CD80 WT / Fc (Fc fusion)
MFI [4]: 4950
MFI [5]: 1520

Substance: stacked Fc fusion, Domain 1: NKp30 WT / Domain 2: ICOSL WT
MFI [16]: 64500 MFI
MFI [17]: 6340 MFI

Substance: variant PD-L2 IgV-Fc H15Q, S67L, I86T (Fc fusion)
MFI at 50 nM [18]: 16000

Substance: CD155 variant IgV-Fc V9I, Q12K, P18F, S65A, S67V, L79P, L104T, G111R, S112I (from UniProt P15151 21-139) (Fc fusion)
MFI at 11.1 nM [10]: 803 MFI

Substance: CD155 A81V, L83P IgV-Fc (from UniProt P15151 24-139) (Fc fusion)
MFI [13]: 2620
MFI [14]: 2910

Substance: CD155 P18L, L79V, F91S IgV-Fc (from UniProt P15151 24-139) (Fc fusion)
MFI [13]: 3280
MFI [14]: 4070
MFI [15]: 5140

Substance: CD155 variant IgV-Fc P18L, E37S, Q62M, G80S, A81P, G99Y, S112N (from UniProt P15151 24-139) (Fc fusion)
MFI at 100 nM [8]: 5900 MFI
MFI at 100 nM [9]: 3340 MFI

Substance: CD112 variant R12W, A46T, K66M, Q79R, N106I, T113A, S118F IgV-Fc (from UniProt Q92692 32-156) (Fc fusion)
MFI at 100 nM [12]: 4060 MFI

Other lines, results leading:

ICOS OD [1]: 1.5 OD
Substance: ICOSL variant N52S/S54P ECD-Fc fusion

MFI at 20 nM [2]: 1120
MFI at 20 nM [3]: 2640
Substance: CD112 IgV R12W, Y33H, N47K, Q79R, S118Y Fc fusion (from UniProt Q92692 32-156)

MFI [4]: 60300
MFI [5]: 2080
Substance: Domain 1: CD80 WT / Domain 2: CD86 WT / Fc (Fc fusion)

MFI at 50 nM [6]: 72700
Fold increase over wildtype PD-L1 IgV-Fc [7]: 13.9 fold
Substance: PD-L1 IgV I20L, D43G, N45D, V58A, N78I Fc fusion

MFI at 100 nM [8]: 4160 MFI
MFI at 100 nM [9]: 5760 MFI
MFI at 100 nM [10]: 11700 MFI
Substance: CD155 variant IgV-Fc A13R, D23Y, E37P, S42P, Q62Y, A81E (from UniProt P15151 24-139) (Fc fusion)

MFI at 100 nM [8]: 3820 MFI
MFI at 100 nM [9]: 3090 MFI
MFI at 100 nM [10]: 11400 MFI
Substance: CD155 variant IgV-Fc P18S, V41A, S42G, T45G, L104N (from UniProt P15151 24-139) (Fc fusion)

MFI at 100 nM [11]: 15600 MFI
Substance: CD112 variant Y33H, A46T, Q79R, N106I, S118F IgV-Fc (from UniProt Q92692 32-156) (Fc fusion)

MFI at 100 nM [9]: 1630 MFI
Substance: CD155 variant IgV-Fc P18F, T26M, L44V, Q62K, L79P, F91S, L104M, G111D (from UniProt P15151 24-139) (Fc fusion)

MFI at 100 nM [12]: 5000 MFI
MFI at 100 nM [11]: 17700 MFI
Substance: CD112 variant Y33H, S118T IgV-Fc (from UniProt Q92692 32-156) (Fc fusion)

MFI [13]: 147000
MFI [15]: 409000
Substance: CD155 P18S, F91S IgV-Fc (from UniProt P15151 24-139) (Fc fusion)

MFI at 50 nM [6]: 1790
Fold increase over wildtype PD-L1 IgV-Fc [7]: 0.3 fold
Substance: PD-L1 IgV A33D, S75P Fc fusion (SEQ ID NO 1310)

MFI at 100 nM [8]: 125000 MFI
MFI at 100 nM [9]: 2220 MFI
MFI at 100 nM [10]: 2110 MFI
Substance: CD155 variant IgV-Fc P18S, T45S, T61K, S65W, S67A, F91S, G111R (from UniProt P15151 24-139) (Fc fusion)
